Experimental data taken from patent EP2835135A2, “Means and methods for treating pseudomonas infection” (Max-Planck-Gesellschaft zur Förderung der Wissenschaften …, priority 2013, dated 2015).
Bridge positions count the residues as written; N and C are the ends. Square brackets hold non-standard residues; d marks the D form. Ends that are not written are not given here. S5 = C=CCCC[C@](C)(N)C(=O)O

Columns and labels:
[1] = target: T1, 14-3-3 (Homo sapiens, UniProt P63104); test: FP competition experiment: labeled peptide preincubated with 14-3-3 and titrated with unlabeled WT peptide; type: binding; conditions: FITC-labeled peptide 20 nM, 14-3-3 4.0 µM, Figure 7
T1 sequence (P63104 1-245): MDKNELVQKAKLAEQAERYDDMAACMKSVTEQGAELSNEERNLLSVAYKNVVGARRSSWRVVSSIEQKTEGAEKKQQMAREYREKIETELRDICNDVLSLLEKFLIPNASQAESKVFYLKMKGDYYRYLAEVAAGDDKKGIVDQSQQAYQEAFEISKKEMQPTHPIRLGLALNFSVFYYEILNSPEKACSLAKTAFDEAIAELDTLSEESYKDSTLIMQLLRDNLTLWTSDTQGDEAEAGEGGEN
Text: The figures show: • Figure 1: (A) Schemetic representaion of ExoS' role in P. aeruginosa infection. (B) Crystal structure of 14-3-3 binding domain of ExoS bound to 14-3-3 (PDB 2002). • Figure 2: (A) Concept for an antibiotic strategy against P. aeruginosa. (B) Overlaid structures of 14-3-3 in complex with 14-3-3 binding domains of ExoS (PDB 2002) and endogenous phosphorylated sequences (PDB 1QJA, 1YWT, 2B05, 2BR9, 2BTP, 2C1J, 2C1N, 2C63, 2C74, 2NPM, 2IQV, 3LW1). • Figure 3: Alignment of 14-3-3 residues involved in inhibitor binding. • Figure 4: Dual assay for the identification of inhibitors of 14-3-3/ExoS interaction that would not affect interactions of 14-3-3 with endogenous binding parterns. L^1 and L^2 as well as L^3 and L^4 are chosen in order to allow a fluorescence polarization readout, ALPHA screen ("Amplified Luminescent Proximity Homogeneous Assay") or HRTF screen ("homogeneous time resolved fluorescence"; both ALPHA and HRTF screens are very sensitive homogeneous assay technologies that allow the screening of interactions in a proximity sensitive fashion). • Figure 5: (A) Crystal structure of ^420[…]^430 (sticks) complexed to 14-3-3 ζ ΔC (spacefill). The 2FC - F0 density is scaled to 1σ (grid). (B) Superimposition of truncated ExoS peptide (^420[…]^430) with the previously reported ExoS peptide (^416[…]^430, PDB 2002). […]

[2] = target: T1, 14-3-3; test: Fluorescence polarization (FP) assay: fluorescein-labeled peptides titrated with unlabeled 14-3-3 protein; type: binding; conditions: three cross-link architectures (C8-linker), Figure 6B
Text: A fluorescence polarization (FP) assay was used to determine the affinity of fluorescein-labeled truncated versions of this peptide to 14-3-3 (Table 1). […] The labeled peptides were titrated with unlabeled 14-3-3 protein.
The binding affinities were again determined using FP.
The binding affinity of the non-classic cross-linked peptides was investigated using FP (Figure 6C).

CC(C)C[C@H](NC(=O)CNC(=O)[C@@H](N)CCC(N)=O)C(=O)N[C@@H](CC(C)C)C(=O)N[C@@H](CC(=O)O)C(=O)N[C@@H](C)C(=O)N[C@@H](CC(C)C)C(=O)N[C@@H](CC(=O)O)C(=O)N[C@@H](CC(C)C)C(=O)N[C@@H](C)C(=O)N[C@@H](CO)C(=O)O
displacement of the labeled peptide by unlabeled WT peptide [1]: displacement by unlabeled WT peptide

α cross-linked peptide: ExoS 11-mer with α cross-link (i,i+4): residues Leu426 and Leu422 replaced with S5, C8-linker (QG[S5]LDA[S5]DLAS; staple 3-7)
affinity for 14-3-3 compared to the starting sequence (WT) [2]: significantly decreased binding affinity

γ cross-linked peptide: ExoS 11-mer with γ cross-link (i,i+3) at positions Leu426 and Leu423 (R5 and S5, respectively), C8-linker (QGLXDAXDLAS; non-natural residues)
affinity for 14-3-3 compared to the starting sequence (WT) [2]: significantly decreased binding affinity
